{"source": "patent US20140004106A1", "binders": {"B1": {"name": "Lead CXCR5 Antibody (humanized IgG4 anti-CXCR5 antibody) (antibody, V domains shown)", "VH": "QVQLKESGPGLVAPSESLSITCTVSGFSLIDYGVNWIRQPPGKGLEWLGVIWGDGTTYYNPSLKSRLSISKDNSKSQVFLKVTSLTTDDTAMYYCARIVYWGQGTLVTVSA", "VL": "DIVMTQAAPSVAVTPGASVSISCRSSKSLLHSSGKTYLYWFLQRPGQSPQLLIYRLSSLASGVPDRFSGSGSGTAFTLRISRVEAEDVGVYYCMQHLEYPYTFGGGTKLEIKR"}}, "key": {"[1]": {"target": "28mer peptide of the CXCR5 antigen", "assay": "Antigen-ELISA; Arginine 10 mM pH 8, after 1 week at +40°C"}, "[2]": {"target": "28mer peptide of the CXCR5 antigen", "assay": "Ag-ELISA; DS in PBS, 25°C, 1 month"}, "[3]": {"target": "28mer peptide of the CXCR5 antigen", "assay": "ELISA potency (binding); 100 mg/mL, Lysine (30) + Mannitol (15), 7 days at 40°C"}, "[4]": {"target": "28mer peptide of the CXCR5 antigen", "assay": "ELISA potency (binding); 100 mg/mL, Glycine (20) + Mannitol (15), T zero"}, "[5]": {"target": "28mer peptide of the CXCR5 antigen", "assay": "Antigen-ELISA; PB 5 mM pH 6.50, T0"}, "[6]": {"target": "28mer peptide of the CXCR5 antigen", "assay": "Antigen-ELISA; acetate 10 mM prototype C, T0"}, "[7]": {"target": "28mer peptide of the CXCR5 antigen", "assay": "ELISA potency (binding); 100 mg/mL, Lysine (30) + NaCl (2), 7 days at 40°C"}, "[8]": {"target": "28mer peptide of the CXCR5 antigen", "assay": "Potency (Antigen ELISA); stored -20°C, initial"}, "[9]": {"target": "28mer peptide of the CXCR5 antigen", "assay": "Antigen-ELISA; PBS 155 mM pH 7.50, after 1 week at +40°C"}, "[10]": {"target": "28mer peptide of the CXCR5 antigen", "assay": "Antigen-ELISA; standard run with LA_09_004_1"}, "[11]": {"target": "28mer peptide of the CXCR5 antigen", "assay": "ELISA potency (binding); 100 mg/mL, Arginine (20) + Mannitol (15), T zero"}, "[12]": {"target": "28mer peptide of the CXCR5 antigen", "assay": "Antigen-ELISA; Citrate 10 mM pH 5.00, after 1 week at +40°C"}, "[13]": {"target": "28mer peptide of the CXCR5 antigen", "assay": "Ag-ELISA; DS in PBS, -20°C, 1 month"}, "[14]": {"target": "28mer peptide of the CXCR5 antigen", "assay": "Potency (Antigen ELISA); stored +5°C, 18 months"}, "[15]": {"target": "28mer peptide of the CXCR5 antigen", "assay": "Antigen-ELISA; Histidine 10 mM pH 5.5, after 1 week at +40°C"}, "[16]": {"target": "28mer peptide of the CXCR5 antigen", "assay": "Antigen-ELISA; histidine 10 mM prototype B, T0"}, "[17]": {"target": "28mer peptide of the CXCR5 antigen", "assay": "Antigen-ELISA; standard run with LA_09_27C, T0"}, "[18]": {"target": "28mer peptide of the CXCR5 antigen", "assay": "Antigen-ELISA; histidine 10 mM prototype A, T0"}, "[19]": {"target": "28mer peptide of the CXCR5 antigen", "assay": "Antigen-ELISA; PBS 155 mM pH 7.50, after mechanical stress 350 rpm 2.5 h"}, "[20]": {"target": "28mer peptide of the CXCR5 antigen", "assay": "Antigen-ELISA; PBS 155 mM pH 7.50, T0"}, "[21]": {"target": "28mer peptide of the CXCR5 antigen", "assay": "Antigen-ELISA; PB 10 mM pH 6.50, T0"}, "[22]": {"target": "28mer peptide of the CXCR5 antigen", "assay": "Potency (Antigen ELISA); stored +25°C, 1 month"}, "[23]": {"target": "28mer peptide of the CXCR5 antigen", "assay": "ELISA potency (binding); 100 mg/mL, Arginine (20) + NaCl (2), 7 days at 40°C"}, "[24]": {"target": "28mer peptide of the CXCR5 antigen", "assay": "Antigen-ELISA; acetate 10 mM prototype D, T0"}, "[25]": {"target": "28mer peptide of the CXCR5 antigen", "assay": "Ag-ELISA; DS in PBS, 5°C, 1 month"}, "[26]": {"target": "28mer peptide of the CXCR5 antigen", "assay": "ELISA potency (binding); 100 mg/mL, Arginine (30), 7 days at 40°C"}, "[27]": {"target": "28mer peptide of the CXCR5 antigen", "assay": "Potency (Antigen ELISA); stored +5°C, 6 months"}, "[28]": {"target": "28mer peptide of the CXCR5 antigen", "assay": "Antigen-ELISA; citrate 10 mM prototype C, T0"}, "[29]": {"target": "28mer peptide of the CXCR5 antigen", "assay": "Antigen-ELISA; Citrate 10 mM pH 5.00, after mechanical stress 350 rpm 2.5 h"}, "[30]": {"target": "28mer peptide of the CXCR5 antigen", "assay": "Antigen-ELISA; PB 5 mM pH 7.50, T0"}, "[31]": {"target": "28mer peptide of the CXCR5 antigen", "assay": "Antigen-ELISA; PB 5 mM pH 7.00, T0"}, "[32]": {"target": "28mer peptide of the CXCR5 antigen", "assay": "Antigen-ELISA; PB 5 mM pH 7.00, after 1 week at +40°C"}, "[33]": {"target": "28mer peptide of the CXCR5 antigen", "assay": "Antigen-ELISA; PBS 155 mM pH 7.00, T0"}, "[34]": {"target": "28mer peptide of the CXCR5 antigen", "assay": "Antigen-ELISA; PBS 155 mM pH 6.50, T0"}, "[35]": {"target": "28mer peptide of the CXCR5 antigen", "assay": "Antigen-ELISA; standard run with LA_09_004_4"}, "[36]": {"target": "28mer peptide of the CXCR5 antigen", "assay": "Antigen-ELISA; Citrate 10 mM pH 6.50, after 1 week at +40°C"}, "[37]": {"target": "28mer peptide of the CXCR5 antigen", "assay": "Potency (Antigen ELISA); stored +25°C, 3 months"}, "[38]": {"target": "28mer peptide of the CXCR5 antigen", "assay": "ELISA potency (binding); 100 mg/mL, Arginine (20) + NaCl (2), T zero"}, "[39]": {"target": "28mer peptide of the CXCR5 antigen", "assay": "Antigen-ELISA; Succinate 10 mM pH 6.00, after 1 week at +40°C"}, "[40]": {"target": "28mer peptide of the CXCR5 antigen", "assay": "Antigen-ELISA; standard run with LA_09_29A, T0"}, "[41]": {"target": "28mer peptide of the CXCR5 antigen", "assay": "Antigen-ELISA; standard run with LA_09_29D, T0"}, "[42]": {"target": "28mer peptide of the CXCR5 antigen", "assay": "Antigen-ELISA; acetate 10 mM prototype B, T0"}, "[43]": {"target": "28mer peptide of the CXCR5 antigen", "assay": "Antigen-ELISA; standard run with LA_09_004_6"}, "[44]": {"target": "28mer peptide of the CXCR5 antigen", "assay": "Antigen-ELISA; acetate 10 mM prototype A, repeated values in the 3 weeks -20°C"}}, "data": [{"binder": "B1", "values": [{"measurement": "EC50 %", "setting": "[1]", "value": 88, "unit": "%"}, {"measurement": "EC50 %", "setting": "[2]", "value": 106, "unit": "%"}, {"measurement": "rel. potency [%]", "setting": "[3]", "value": 297, "unit": "%"}, {"measurement": "rel. potency [%]", "setting": "[4]", "value": 111, "unit": "%"}, {"measurement": "EC50 %", "setting": "[5]", "value": 110, "unit": "%"}, {"measurement": "EC50 %", "setting": "[6]", "value": 142, "unit": "%"}, {"measurement": "rel. potency [%]", "setting": "[7]", "value": 264, "unit": "%"}, {"measurement": "EC50 value (in comparison to reference)", "setting": "[8]", "value": 75, "unit": "%"}, {"measurement": "EC50 %", "setting": "[9]", "value": 52, "unit": "%"}, {"measurement": "EC50 %", "setting": "[10]", "value": 100, "unit": "%"}, {"measurement": "rel. potency [%]", "setting": "[11]", "value": 117, "unit": "%"}, {"measurement": "EC50 %", "setting": "[12]", "value": 75, "unit": "%"}, {"measurement": "EC50 %", "setting": "[13]", "value": 132, "unit": "%"}, {"measurement": "EC50 value (in comparison to reference)", "setting": "[14]", "value": 119, "unit": "%"}, {"measurement": "EC50 %", "setting": "[15]", "value": 81, "unit": "%"}, {"measurement": "EC50 %", "setting": "[16]", "value": 118, "unit": "%"}, {"measurement": "EC50 %", "setting": "[17]", "value": 100, "unit": "%"}, {"measurement": "EC50 %", "setting": "[18]", "value": 174, "unit": "%"}, {"measurement": "EC50 %", "setting": "[19]", "value": 71, "unit": "%"}, {"measurement": "EC50 %", "setting": "[20]", "value": 81, "unit": "%"}, {"measurement": "EC50 %", "setting": "[21]", "value": 105, "unit": "%"}, {"measurement": "EC50 value (in comparison to reference)", "setting": "[22]", "value": 121, "unit": "%"}, {"measurement": "rel. potency [%]", "setting": "[23]", "value": 164, "unit": "%"}, {"measurement": "EC50 %", "setting": "[24]", "value": 91, "unit": "%"}, {"measurement": "EC50 %", "setting": "[25]", "value": 83, "unit": "%"}, {"measurement": "rel. potency [%]", "setting": "[26]", "value": 143, "unit": "%"}, {"measurement": "EC50 value (in comparison to reference)", "setting": "[27]", "value": 97, "unit": "%"}, {"measurement": "EC50 %", "setting": "[28]", "value": 104, "unit": "%"}, {"measurement": "EC50 %", "setting": "[29]", "value": 99, "unit": "%"}, {"measurement": "EC50 %", "setting": "[30]", "value": 176, "unit": "%"}, {"measurement": "EC50 %", "setting": "[31]", "value": 68, "unit": "%"}, {"measurement": "EC50 %", "setting": "[32]", "value": 68, "unit": "%"}, {"measurement": "EC50 %", "setting": "[33]", "value": 74, "unit": "%"}, {"measurement": "EC50 %", "setting": "[34]", "value": 139, "unit": "%"}, {"measurement": "EC50 %", "setting": "[35]", "value": 100, "unit": "%"}, {"measurement": "EC50 %", "setting": "[36]", "value": 46, "unit": "%"}, {"measurement": "EC50 value (in comparison to reference)", "setting": "[37]", "value": 96, "unit": "%"}, {"measurement": "rel. potency [%]", "setting": "[38]", "value": 144, "unit": "%"}, {"measurement": "EC50 %", "setting": "[39]", "value": 126, "unit": "%"}, {"measurement": "EC50 %", "setting": "[40]", "value": 100, "unit": "%"}, {"measurement": "EC50 %", "setting": "[41]", "value": 100, "unit": "%"}, {"measurement": "EC50 %", "setting": "[42]", "value": 112, "unit": "%"}, {"measurement": "EC50 %", "setting": "[43]", "value": 100, "unit": "%"}, {"measurement": "EC50 %", "setting": "[44]", "value": 112, "unit": "%"}]}]}
